Target: SARS-CoV-2 S2 protein (SARS-CoV-2 (Wuhan-Hu-1 assumed), UniProt P0DTC2)
Assay: ELISA

Binder | binding result
monoclonal antibody 4L12 (antibody, V domains shown) VH: EVQLVESGGGLVQPGGSLRLSCAASGITVSSNYMNWVRQAPGRGLEWVSLLYSGGSTYYADSVKGRFTISRDNSKNTLYLQMNSLRAEDTAVYYCARDLITYGMDVWGQGTTVTVSS VL: AIQLTQSPSSLSASVGDRVTITCRASQGISSYLAWYQQKPGKAPKLLIYAASTLQSGVPSRFSGSGSGTDFTLTISSLQPEDFATYYCQQLNSYPPLTFGGGTKVEIK | no binding
monoclonal antibody 7F3 (antibody, V domains shown) VH: EVQLVESGGGLVKPGRSLRLSCTASGFTFGDYAMSWFRQAPGKGLEWVGFIRSKAYGGTTEYAASVKGRFTISRDDSKSIAYLQMNSLKTEDTAVYYCTRDRYARYDILTGLSPAGADYFYYAMDVWGQGTTVTVSS VL: EIVLTQSPATLSLSPGERATLSCRASQSVSSYLAWYQQKPGQAPRLLIYDASNRATGIPARFSGSGSGTDFTLTISSLEPEDFAVYYCQQRSNWPQYTFGQGTKLEIK | no binding

Source: doi:10.1101/2020.10.08.20209114 (medRxiv, 2020)
